Data published in patent US6472171.

Biological target: human α2(I) procollagen (human) (UniProt P08123)
Assay: cell-based or functional assay

human α2(I) procollagen (human), sequence (P08123 23-1366 limits assumed): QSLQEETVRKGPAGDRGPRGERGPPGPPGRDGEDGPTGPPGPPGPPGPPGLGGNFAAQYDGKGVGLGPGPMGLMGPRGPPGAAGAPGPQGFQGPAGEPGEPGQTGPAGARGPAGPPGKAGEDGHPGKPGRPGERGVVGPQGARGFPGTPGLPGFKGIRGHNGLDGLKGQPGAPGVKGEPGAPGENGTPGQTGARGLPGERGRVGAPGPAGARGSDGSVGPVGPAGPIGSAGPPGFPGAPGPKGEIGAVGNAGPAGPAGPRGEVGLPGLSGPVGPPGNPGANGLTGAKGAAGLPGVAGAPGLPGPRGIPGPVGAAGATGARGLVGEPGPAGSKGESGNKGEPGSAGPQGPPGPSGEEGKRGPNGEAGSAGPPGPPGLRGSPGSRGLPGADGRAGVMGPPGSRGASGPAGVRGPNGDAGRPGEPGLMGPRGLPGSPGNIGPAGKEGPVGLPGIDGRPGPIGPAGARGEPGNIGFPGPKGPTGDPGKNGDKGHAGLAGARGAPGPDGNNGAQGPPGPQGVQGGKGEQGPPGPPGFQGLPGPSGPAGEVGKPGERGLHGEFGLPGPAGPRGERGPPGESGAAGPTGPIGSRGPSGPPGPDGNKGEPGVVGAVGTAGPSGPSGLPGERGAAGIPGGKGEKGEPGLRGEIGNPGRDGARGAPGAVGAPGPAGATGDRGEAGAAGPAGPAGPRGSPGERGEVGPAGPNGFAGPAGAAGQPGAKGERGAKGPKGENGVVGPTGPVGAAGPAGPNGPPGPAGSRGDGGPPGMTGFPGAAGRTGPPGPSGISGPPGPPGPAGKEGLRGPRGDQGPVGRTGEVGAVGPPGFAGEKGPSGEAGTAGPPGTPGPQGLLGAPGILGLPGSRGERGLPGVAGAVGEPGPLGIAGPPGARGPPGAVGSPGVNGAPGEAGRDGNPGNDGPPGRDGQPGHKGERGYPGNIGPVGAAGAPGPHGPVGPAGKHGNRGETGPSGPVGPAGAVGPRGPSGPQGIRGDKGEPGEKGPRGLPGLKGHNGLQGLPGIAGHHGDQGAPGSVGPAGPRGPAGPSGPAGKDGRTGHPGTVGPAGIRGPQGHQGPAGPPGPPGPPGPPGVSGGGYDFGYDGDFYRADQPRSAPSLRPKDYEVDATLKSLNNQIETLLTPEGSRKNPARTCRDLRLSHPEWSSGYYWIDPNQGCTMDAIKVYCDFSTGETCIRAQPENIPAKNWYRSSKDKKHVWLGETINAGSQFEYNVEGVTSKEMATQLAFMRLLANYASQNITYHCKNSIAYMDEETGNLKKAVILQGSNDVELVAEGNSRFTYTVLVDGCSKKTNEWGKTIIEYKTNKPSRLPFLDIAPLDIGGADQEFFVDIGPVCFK

- resistance to pepsin digestion at increasing temperatures (SDS-PAGE): 38 ° C.
Substance: human α1(I) procollagen (from UniProt P02452 23-1464)
